Test results from the supplement of paper PMC10724198.
± gives the standard deviation of the averaged measurements.

System: Saccharomyces cerevisiae
Assay: protein stability index of tFT-peptide fusion (C-terminal peptide) (PSI (0-1 scale)); higher = more stable (slower turnover)
Settings: genetic background: cdc34-1; temperature: 37 C
Procedure: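 MPS profiling in S. cerevisiae of the tFT-X12 degron library: putative degron peptides plus stable controls, 12 aa, fused to the C-terminus of a sfGFP-mCherry timer. Cells are FACS-sorted into 8 mCherry/sfGFP bins and deep-sequenced. PSI runs from 0 (unstable) to 1 (stable). Backgrounds are wild type, das1Δ and doa10Δ at 30 °C, and wild type, das1Δ, cdc34-1 and cdc53-1 at 37 °C; 2-3 technical replicates each.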
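Further: PSI is a weighted mean of sequencing reads over stability bins, variants kept only with over 10 reads, mCherry proximal and sfGFP distal, peptide attached via GGGS linker.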

Sequence	protein stability index
AAFLGVLCWCWG	0.436 ± 0.039
ACVRFPLVLVVF	0.0242 ± 0.0039
AFKRVFWALWWM	0.367 ± 0.01
AFLFLFSITCIV	0.181 ± 0.011
AFPVGFLVGLVV	0.4381 ± 0.0028
AGCFFVVLCGFF	0.436 ± 0.018
AIDLCIAVVGMV	0.479 ± 0.042
AITHVILLVTPL	0.562 ± 0.02
ALFVGVVLLVCW	0.0857 ± 0.0098
ALHGTVRNWQRQ	0.673 ± 0.066
ALLLLLRRFFLV	0.432 ± 0.034
ALMTFTLVFTYM	0.168 ± 0.0067
ALPLRSNILSVF	0.446 ± 0.019
ALWFVLISILCL	0.316 ± 0.016
APLPPPPASVPP	0.656 ± 0.076
APPHPPPATFLS	0.643 ± 0.014
ARFCFRIFSFAS	0.159 ± 0.018
ASCFFLFVLRVF	0.0589 ± 0.0071
ATLWVWCFSSHV	0.601 ± 0.047
ATSGATILVLIA	0.569 ± 0.014
CEVLVVVMCLWG	0.199 ± 0.0023
CFFPFLCFVVGA	0.482 ± 0.021
CLFFFFFHLPIF	0.445 ± 0.022
CLFSVLFPLFFR	0.0858 ± 0.049
CLGLFPSLLRLS	0.666 ± 0.031
CLLWVVWSLLWV	0.346 ± 0.0041
CLVFGFLFFIVI	0.35 ± 0.028

Sequence	protein stability index
CLWNFWVRFLLL	0.298 ± 0.042
CMLGVVRVLVWF	0.028 ± 0.0058
CMLPWPILLCPF	0.322 ± 0.0044
CMPVYYTVVIRL	0.177 ± 0.052
CPALTFCLLLSS	0.539 ± 0.051
CPFLTLLISLDV	0.52 ± 0.034
CPICDFLFLALF	0.565 ± 0.021
CRHCFVLLYFDY	0.304 ± 0.026
CRLATILRITAL	0.574 ± 0.028
CSLFFFRLIFTL	0.101 ± 0.025
CSLFYVFYRRLL	0.595 ± 0.026
CSLRGLFLVVSV	0.3652 ± 0.0033
DFWCIIVIFLFR	0.221 ± 0.004
EKKKKKRKNKIK	0.691 ± 0.0098
FHSALIAIAAYV	0.135 ± 0.012
LSLLILFVLLSF	0.444 ± 0.014
LVGYSVFVLFFS	0.282 ± 0.015
PLPSRLRRFVPV	0.656 ± 0.05
PPCSLLPPPPAP	0.624 ± 0.049
RGGVRGVRSGRG	0.588 ± 0.016
SLTHTPLGVTRT	0.657 ± 0.033
TGGGGRVSLGVG	0.359 ± 0.066
TLDWKFGWGGIG	0.603 ± 0.011
VLRFVYDLVSAL	0.559 ± 0.036
VQTVRLVFQVLA	0.307 ± 0.0063
VRWALLGVVVEG	0.388 ± 0.014

Same assay, conditions: genetic background: cdc53-1; temperature: 37 C

Sequence	protein stability index
AAFLGVLCWCWG	0.465 ± 0.0079
ACVRFPLVLVVF	0.0448 ± 0.015
AFKRVFWALWWM	0.39 ± 0.0072
AFLFLFSITCIV	0.23 ± 0.0042
AFPVGFLVGLVV	0.469 ± 0.011
AGCFFVVLCGFF	0.503 ± 0.04
AIDLCIAVVGMV	0.491 ± 0.029
AITHVILLVTPL	0.5803 ± 0.0043
ALFVGVVLLVCW	0.193 ± 0.023
ALHGTVRNWQRQ	0.701 ± 0.059
ALLLLLRRFFLV	0.659 ± 0.029
ALMTFTLVFTYM	0.296 ± 0.0055
ALPLRSNILSVF	0.489 ± 0.037
ALWFVLISILCL	0.353 ± 0.026
APLPPPPASVPP	0.7014 ± 0.0041
APPHPPPATFLS	0.732 ± 0.022
ARFCFRIFSFAS	0.178 ± 0.0049
ASCFFLFVLRVF	0.113 ± 0.0091
ATLWVWCFSSHV	0.6418 ± 0.003
ATSGATILVLIA	0.65 ± 0.0048
CEVLVVVMCLWG	0.295 ± 0.043
CFFPFLCFVVGA	0.492 ± 0.023
CLFFFFFHLPIF	0.508 ± 0.016
CLFSVLFPLFFR	0.0347 ± 0.0022
CLGLFPSLLRLS	0.737 ± 0.021
CLLWVVWSLLWV	0.432 ± 0.011
CLVFGFLFFIVI	0.411 ± 0.061

Sequence	protein stability index
CLWNFWVRFLLL	0.406 ± 0.023
CMLGVVRVLVWF	0.138 ± 0.075
CMLPWPILLCPF	0.329 ± 0.023
CMPVYYTVVIRL	0.102 ± 0.028
CPALTFCLLLSS	0.567 ± 0.0093
CPFLTLLISLDV	0.555 ± 0.044
CPICDFLFLALF	0.599 ± 0.064
CRHCFVLLYFDY	0.304 ± 0.013
CRLATILRITAL	0.665 ± 0.026
CSLFFFRLIFTL	0.185 ± 0.026
CSLFYVFYRRLL	0.665 ± 0.012
CSLRGLFLVVSV	0.396 ± 0.018
DFWCIIVIFLFR	0.348 ± 0.027
EKKKKKRKNKIK	0.727 ± 0.037
FHSALIAIAAYV	0.128 ± 0.032
LSLLILFVLLSF	0.476 ± 0.016
LVGYSVFVLFFS	0.5056 ± 0.0012
PLPSRLRRFVPV	0.701 ± 0.0078
PPCSLLPPPPAP	0.7196 ± 0.0057
RGGVRGVRSGRG	0.716 ± 0.047
SLTHTPLGVTRT	0.748 ± 0.012
TGGGGRVSLGVG	0.416 ± 0.0099
TLDWKFGWGGIG	0.579 ± 0.016
VLRFVYDLVSAL	0.599 ± 0.011
VQTVRLVFQVLA	0.373 ± 0.049
VRWALLGVVVEG	0.398 ± 0.0062

Same assay, conditions: genetic background: das1 deletion; temperature: 30 C

Sequence	protein stability index
AAFLGVLCWCWG	0.363 ± 0.033
ACVRFPLVLVVF	0.0965 ± 0.018
AFKRVFWALWWM	0.421 ± 0.03
AFLFLFSITCIV	0.195 ± 0.029
AFPVGFLVGLVV	0.345 ± 0.024
AGCFFVVLCGFF	0.334 ± 0.035
AIDLCIAVVGMV	0.338 ± 0.035
AITHVILLVTPL	0.411 ± 0.025
ALFVGVVLLVCW	0.177 ± 0.023
ALHGTVRNWQRQ	0.63 ± 0.035
ALLLLLRRFFLV	0.643 ± 0.014
ALMTFTLVFTYM	0.181 ± 0.022
ALPLRSNILSVF	0.344 ± 0.031
ALWFVLISILCL	0.312 ± 0.024
APLPPPPASVPP	0.672 ± 0.015
APPHPPPATFLS	0.685 ± 0.019
ARFCFRIFSFAS	0.288 ± 0.032
ASCFFLFVLRVF	0.169 ± 0.016
ATLWVWCFSSHV	0.469 ± 0.019
ATSGATILVLIA	0.488 ± 0.024
CEVLVVVMCLWG	0.224 ± 0.029
CFFPFLCFVVGA	0.358 ± 0.025
CLFFFFFHLPIF	0.425 ± 0.026
CLFSVLFPLFFR	0.137 ± 0.042
CLGLFPSLLRLS	0.644 ± 0.02
CLLWVVWSLLWV	0.283 ± 0.035
CLVFGFLFFIVI	0.338 ± 0.026

Sequence	protein stability index
CLWNFWVRFLLL	0.399 ± 0.014
CMLGVVRVLVWF	0.129 ± 0.029
CMLPWPILLCPF	0.391 ± 0.024
CMPVYYTVVIRL	0.204 ± 0.029
CPALTFCLLLSS	0.417 ± 0.029
CPFLTLLISLDV	0.411 ± 0.032
CPICDFLFLALF	0.483 ± 0.037
CRHCFVLLYFDY	0.321 ± 0.033
CRLATILRITAL	0.552 ± 0.022
CSLFFFRLIFTL	0.219 ± 0.032
CSLFYVFYRRLL	0.556 ± 0.0087
CSLRGLFLVVSV	0.289 ± 0.032
DFWCIIVIFLFR	0.248 ± 0.015
EKKKKKRKNKIK	0.655 ± 0.024
FHSALIAIAAYV	0.201 ± 0.029
LSLLILFVLLSF	0.355 ± 0.042
LVGYSVFVLFFS	0.253 ± 0.034
PLPSRLRRFVPV	0.595 ± 0.0072
PPCSLLPPPPAP	0.682 ± 0.043
RGGVRGVRSGRG	0.478 ± 0.014
SLTHTPLGVTRT	0.6409 ± 0.0026
TGGGGRVSLGVG	0.356 ± 0.013
TLDWKFGWGGIG	0.566 ± 0.024
VLRFVYDLVSAL	0.531 ± 0.029
VQTVRLVFQVLA	0.25 ± 0.033
VRWALLGVVVEG	0.293 ± 0.029

Same assay, conditions: genetic background: das1 deletion; temperature: 37 C

Sequence	protein stability index
AAFLGVLCWCWG	0.486 ± 0.0051
ACVRFPLVLVVF	0.0904 ± 0.0059
AFKRVFWALWWM	0.563 ± 0.039
AFLFLFSITCIV	0.342 ± 0.0063
AFPVGFLVGLVV	0.499 ± 0.0067
AGCFFVVLCGFF	0.495 ± 0.016
AIDLCIAVVGMV	0.5106 ± 0.0023
AITHVILLVTPL	0.61 ± 0.059
ALFVGVVLLVCW	0.28 ± 0.0069
ALHGTVRNWQRQ	0.696 ± 0.011
ALLLLLRRFFLV	0.739 ± 0.013
ALMTFTLVFTYM	0.324 ± 0.02
ALPLRSNILSVF	0.506 ± 0.0091
ALWFVLISILCL	0.427 ± 0.03
APLPPPPASVPP	0.711 ± 0.014
APPHPPPATFLS	0.721 ± 0.0092
ARFCFRIFSFAS	0.168 ± 0.0092
ASCFFLFVLRVF	0.271 ± 0.0072
ATLWVWCFSSHV	0.62 ± 0.013
ATSGATILVLIA	0.6473 ± 0.0042
CEVLVVVMCLWG	0.3738 ± 0.0025
CFFPFLCFVVGA	0.514 ± 0.0085
CLFFFFFHLPIF	0.533 ± 0.033
CLFSVLFPLFFR	0.158 ± 0.016
CLGLFPSLLRLS	0.731 ± 0.0092
CLLWVVWSLLWV	0.4506 ± 0.0035
CLVFGFLFFIVI	0.449 ± 0.016

Sequence	protein stability index
CLWNFWVRFLLL	0.509 ± 0.015
CMLGVVRVLVWF	0.1929 ± 0.0009
CMLPWPILLCPF	0.469 ± 0.023
CMPVYYTVVIRL	0.294 ± 0.015
CPALTFCLLLSS	0.5866 ± 0.0054
CPFLTLLISLDV	0.531 ± 0.0067
CPICDFLFLALF	0.651 ± 0.022
CRHCFVLLYFDY	0.384 ± 0.0093
CRLATILRITAL	0.658 ± 0.021
CSLFFFRLIFTL	0.339 ± 0.0091
CSLFYVFYRRLL	0.649 ± 0.01
CSLRGLFLVVSV	0.474 ± 0.016
DFWCIIVIFLFR	0.393 ± 0.015
EKKKKKRKNKIK	0.7221 ± 0.0038
FHSALIAIAAYV	0.2396 ± 0.00086
LSLLILFVLLSF	0.449 ± 0.023
LVGYSVFVLFFS	0.498 ± 0.012
PLPSRLRRFVPV	0.7072 ± 0.0018
PPCSLLPPPPAP	0.713 ± 0.0088
RGGVRGVRSGRG	0.565 ± 0.026
SLTHTPLGVTRT	0.72832 ± 0.00066
TGGGGRVSLGVG	0.42 ± 0.0044
TLDWKFGWGGIG	0.6477 ± 0.0045
VLRFVYDLVSAL	0.643 ± 0.036
VQTVRLVFQVLA	0.4 ± 0.0099
VRWALLGVVVEG	0.4742 ± 0.00066

Same assay, conditions: genetic background: doa10 deletion; temperature: 30 C

Sequence	protein stability index
AAFLGVLCWCWG	0.323 ± 0.0063
ACVRFPLVLVVF	0.0902 ± 0.022
AFKRVFWALWWM	0.431 ± 0.032
AFLFLFSITCIV	0.197 ± 0.014
AFPVGFLVGLVV	0.319 ± 0.0075
AGCFFVVLCGFF	0.311 ± 0.0056
AIDLCIAVVGMV	0.311 ± 0.015
AITHVILLVTPL	0.384 ± 0.0029
ALFVGVVLLVCW	0.154 ± 0.013
ALHGTVRNWQRQ	0.191 ± 0.016
ALLLLLRRFFLV	0.0867 ± 0.003
ALMTFTLVFTYM	0.209 ± 0.026
ALPLRSNILSVF	0.242 ± 0.01
ALWFVLISILCL	0.304 ± 0.007
APLPPPPASVPP	0.65 ± 0.014
APPHPPPATFLS	0.326 ± 0.032
ARFCFRIFSFAS	0.0406 ± 0.0038
ASCFFLFVLRVF	0.13 ± 0.0043
ATLWVWCFSSHV	0.438 ± 0.023
ATSGATILVLIA	0.188 ± 0.0099
CEVLVVVMCLWG	0.196 ± 0.006
CFFPFLCFVVGA	0.3205 ± 0.0017
CLFFFFFHLPIF	0.4011 ± 0.00062
